# Target: Chlamydomonas reinhardtii RabL2, wild type (Chlamydomonas reinhardtii)
# Test: ITC
substance,measurement,value
Chlamydomonas reinhardtii CEP19 residues 1-208 (domain or fragment),Kd,12.7 µM

# From paper PMC10505919
